Target: Neural cell adhesion molecule (NCAM1), endogenous in Vero cells (African green monkey (endogenous in Vero))

With “Zika virus (ZIKV) E protein on the surface of purified mature virions, labelled with the maleimide-diazirine-biotin probe (natural protein)” the decrease in ZIKV attachment to Vero cells (RT-qPCR) with NCAM1 ECD protein or anti-NCAM1 antibody was 40%.

From publication PMC7403387
